Measured values as given in patent publication US20120329854A1, “Methods and Compounds for the Diagnosis and Treatment for Cancer” (UNIVERSITÄTSKLINIKUM FREIBURG, priority 2009, published 2012).

Legend:
KLK2 and FKBP5 genes = experiment: Quantitative RT-PCR of androgen-regulated genes in LNCaP cells; assay type: cell-based, human; details: miRNA-mediated knockdown (FIG. 3j)
Procedure: Quantitative RT-PCR and statistical analysis were performed as described. The primers for KLK2 and FKBP5 were described previously^6, 11.

LNCaP cells = experiment: Cell proliferation assay (BrdU ELISA), R1881-induced proliferation; assay type: cell-based, human; details: LNCaP cells infected with lentivirus, 1×10^−9 M R1881, versus miRNA control (FIG. 4e)
Procedure: Experiments were performed as described^2. pLenti6-miRNA-control and pLenti6-miRNA-PKCβI were used to produce recombinant lentiviruses to infect LNCaP cells as described^15. The infected cells were cultured for 72 hours in medium containing 10% double-stripped FCS. 1×10^4 cells were plated in a 96-well plate in the presence or absence of 1×10^−9 M R1881. The cell proliferation Elisa BrdU Colorimetric Assay (Roche) was performed according to the manufacturer's instructions. […] The experiments were performed in hexaplicate.

B1: 5′-TGCTGTTACGTAGGGATCTGACAGGCGTTTTGGCCACTGACTGACGCCTGTCATCCCTACGTAA-3′ (nucleic acid)
DNA 1: TGCTGTTACGTAGGGATCTGACAGGCGTTTTGGCCACTGACTGACGCCTGTCATCCCTACGTAA
DNA 2: CCTGTTACGTAGGGATGACAGGCGTCAGTCAGTGGCCAAAACGCCTGTCAGATCCCTACGTAAC
modifications: expressed or natural sequence
In the case of B1, the “expression of the androgen-regulated KLK2 and FKBP5 genes” value (KLK2 and FKBP5 genes) is reported as “reduces expression” and the R1881-induced cell proliferation (LNCaP cells) is reported as “severely reduces”.
